According to PMC6695210, “Bipartite interface of the measles virus phosphoprotein X domain with the large polymerase protein regulates viral polymerase dynamics” (PLoS Pathogens, 2019):

B1: MeV phosphoprotein (P), wild type [measles virus (strain IC-B)] / MeV L_(1708), C-terminally truncated large polymerase protein lacking the methyltransferase domain [measles virus (strain IC-B)] (parent complex)
chain 1: MAEEQARHVKNGLECIRALKAEPIGSLAVEEAMAAWSEISDNPGQDRATCKEEEAGSSGLSKPCLSAIGSTEGGAPRIRGQGSGESDDDAETLGIPSRNLQASSTGLQCYHVYDHSGEAVKGIQDADSIMVQSGLDGDSTLSGGDDESENSDVDIGEPDTEGYAITDRGSAPISMGFRASDVETAEGGEIHELLKLQSRGNNFPKLGKTLNVPPPPNPSRASTSETPIKKGTDARLASFGTEIASLLTGGATQCARKSPSEPSGPGAPAGNVPECVSNAALIQEWTPESGTTISPRSQNNEEGGDYYDDELFSDVQDIKTALAKIHEDNQKIISKLESLLLLKGEVESIKKQINRQNISISTLEGHLSSIMIAIPGLGKDPNDPTADVELNPDLKPIIGRDSGRALAEVLKKPVASRQLQGMTNGRTSSRGQLLKEFQLKPIGKKVSSAVGFVPDTGPASRSVIRSIIKSSRLEEDRKRYLMTLLDDIKGANDLAKFHQMLMKIIMK
chain 2: MDSLSVNQILYPEVHLDSPIVTNKIVAILEYARVPHAYSLEDPTLCQNIKHRLKNGFSNQMIINNVEVGNVIKSKLRSYPAHSHIPYPNCNQDLFNIEDKESTRKIRELLKKGNSLYSKVSDKVFQCLRDTNSRLGLGSELREDIKEKIINLGVYMHSSQWFEPFLFWFTVKTEMRSVIKSQTHTCHRRRHTPVFFTGSSVELLISRDLVAIISKESQHVYYLTFELVLMYCDVIEGRLMTETAMTIDARYAELLGRVRYMWKLIDGFFPALGNPTYQIVAMLEPLSLAYLQLRDITVELRGAFLNHCFTEIHDVLDQNGFSDEGTYHELIEALDYIFITDDIHLTGEIFSFFRSFGHPRLEAVTAAENVRKYMNQPKVIVYETLMKGHAIFCGIIINGYRDRHGGSWPPLTLPLHAADTIRNAQASGEGLTHEQCVDNWKSFAGVRFGCFMPLSLDSDLTMYLKDKALAALQREWDSVYPKEFLRYDPPKGTGSRRLVDVFLNDSSFDPYDMIMYVVSGAYLHDPEFNLSYSLKEKEIKETGRLFAKMTYKMRACQVIAENLISNGIGKYFKDNGMAKDEHDLTKALHTLAVSGVPKDLKESHRGGPVLKTYSRSPVHTSTRNVKAEKGFVGFPHVIRQNQDTDHPENIETYETVSAFITTDLKKYCLNWRYETISLFAQRLNEIYGLPSFFQWLHKRLETSVLYVSDPHCPPDLDAHVPLCKVPNDQIFIKYPMGGIEGYCQKLWTISTIPYLYLAAYESGVRIASLVQGDNQTIAVTKRVPSTWPYNLKKREAARVTRDYFVILRQRLHDIGHHLKANETIVSSHFFVYSKGIYYDGLLVSQSLKSIARCVFWSETIVDETRAACSNIATTMAKSIERGYDRYLAYSLNVLKVIQQILISLGFTINSTMTRDVVIPLLTNNDLLIRMALLPAPIGGMNYLNMSRLFVRNIGDPVTSSIADLKRMILASLMPEETLHQVMTQQPGDSSFLDWASDPYSANLVCVQSITRLLKNITARFVLIHSPNPMLKGLFHDDSKEEDERLAAFLMDRHIIVPRAAHEILDHSVTGARESIAGMLDTTKGLIRASMRKGGLTSRVITRLSNYDYEQFRAGMVLLTGRKRNVLIDKESCSVQLARALRSHMWARLARGRPIYGLEVPDVLESMRGHLIRRHETCVICECGSVNYGWFFVPSGCQLDDIDKETSSLRVPYIGSTTDERTDMKLAFVRAPSRSLRSAVRIATVYSWAYGDDDSSWNEAWLLARQRANVSLEELRVITPISTSTNLAHRLRDRSTQVKYSGTSLVRVARYTTISNDNLSFVISDKKVDTNFIYQQGMLLGLGVLETLFRLEKDTGSSNTVLHLHVETDCCVIPMIDHPRIPSSRKLELRAELCTNPLIYDNAPLIDRDATRLYTQSHRRHLVEFVTWSTPQLYHILAKSTALSMIDLVTKFEKDHMNEISALIGDDDINSFITEFLLIEPRLFTIYLGQCAAINWAFDVHYHRPSGKYQMGELLSSFLSRMSKGVFKVLVNALSHPKIYKKFWHCGIIEPIHGPSLDAQNLHTTVCNMVYTCYMTYLDLLLNEELEEFTFLLCESDEDVVPDRFDNIQAKHLCVLADLYCQPGTCPPIRGLRPVEKCAVLTDHIKAEARLSPAGSSWNINPIIVDHYSCSLTYLRRGSIKQIRLRVDPGFIFDALAEVNVSQPKVGSN

Variants of: B1
Experiment: co-immunoprecipitation (IP anti-HA of P, immunoblot of L anti-FLAG, densitometry); lysates of transiently transfected cells, lysed 24 hours after transfection; IP at 4°C; parent: 100; read off a plot

In order of falling percent of parent:
1. chain 1 S361A, chain 1 T362A  ~95 % of wild type P
2. chain 1 S361A  ~85 % of wild type P
3. chain 1 E364A  ~44 % of wild type P
4. chain 1 L363A  ~38 % of wild type P
5. chain 1 L363A, chain 1 E364A  ~20 % of wild type P

Variants of: B1
Experiment: as above
Remark: another data set of the same source

In order of rising percent of parent:
1. chain 1 R404A, chain 1 L406A  ~14 % of wild type P
2. chain 1 D401A, chain 1 S402A, chain 1 G403A, chain 1 R404A  ~19 % of wild type P
3. chain 1 P396A, chain 1 I397A, chain 1 I398A, chain 1 G399A  ~22 % of wild type P
4. chain 1 E408A, chain 1 V409A, chain 1 L410A  ~30 % of wild type P
5. chain 1 D383A, chain 1 P384A, chain 1 T385A  ~55 % of wild type P
6. chain 1 K440A, chain 1 P441A, chain 1 I442A, chain 1 G443A  ~75 % of wild type P
7. chain 1 L377A, chain 1 G378A, chain 1 K379A, chain 1 D380A  ~78 % of wild type P
8. chain 1 G431A, chain 1 Q432A, chain 1 L433A, chain 1 L434A  ~85 % of wild type P
9. chain 1 S447A, chain 1 S448A, chain 1 V450A  ~92 % of wild type P

Variants of: B1
Experiment: as above
Remark: another data set of the same source

In order of falling percent of parent:
1. chain 1 M502R  ~120 % of wild type P
2. chain 1 A491R  ~120 % of wild type P
3. chain 1 A495R  ~78 % of wild type P
4. chain 1 S470R  ~65 % of wild type P
5. chain 1 S466R  ~20 % of wild type P
6. chain 1 H498E  ~18 % of wild type P
7. chain 1 V463R  ~5 % of wild type P

Variants of: B1
Experiment: as above
Remark: another data set of the same source

In order of falling percent of parent:
1. chain 1 D493K  ~150 % of wild type P
2. chain 1 D486R  ~130 % of wild type P
3. chain 1 F497D  ~120 % of wild type P
4. chain 1 T483R  ~85 % of wild type P
5. chain 1 R479E  ~82 % of wild type P
6. chain 1 K469E  ~75 % of wild type P
7. chain 1 S462R  ~75 % of wild type P
8. chain 1 R465E  ~62 % of wild type P

Variants of: B1
Experiment: as above
Remark: another data set of the same source

In order of rising percent of parent:
1. chain 1 MAEEQARHVKNGLECIRALKAEPIGSLAVEEAMAAWSEISDNPGQDRATCKEEEAGSSGLSKPCLSAIGSTEGGAPRIRGQGSGESDDDAETLGIPSRNLQASSTGLQCYHVYDHSGEAVKGIQDADSIMVQSGLDGDSTLSGGDDESENSDVDIGEPDTEGYAITDRGSAPISMGFRASDVETAEGGEIHELLKLQSRGNNFPKLGKTLNVPPPPNPSRASTSETPIKKGTDARLASFGTEIASLLTGGATQCARKSPSEPSGPGAPAGNVPECVSNAALIQEWTPESGTTISPRSQNNEEGGDYYDDELFSDVQDIKTALAKIHEDNQKIISKLESLLLLKGEVESIKKQINRQNISIAAAAGHLSSIMIAIPGLGKDPNDPTADVELNPDLKPIIGRDSGRALAEVLKKPVASRQLQGMTNGRTSSRGQLLKEFQLKPIGKKVSSAVGFVPDTGPASRSVIRSIIKSSRLEEDRKRYLMTLLDDIKGANDLAKFHQMLMKIIMK [chain 1 S361A, chain 1 T362A, chain 1 L363A, chain 1 E364A]  ~3 % of wild type P
2. chain 1 I374A, chain 1 P375A, chain 1 G376A, chain 1 L377A  ~9 % of wild type P
3. chain 1 G365A, chain 1 H366A, chain 1 L367A, chain 1 S368A  ~12 % of wild type P
4. chain 1 S369A, chain 1 I370A, chain 1 M371A, chain 1 I372A  ~14 % of wild type P
